Measured values: patent US11622990 (FUDAN UNIVERSITY, dated 2023)
Ends that are not written are not given here. Fluorescein‑5‑maleimide = reacted with thiol of C-terminal Cys

Experiments:
[1] = target: T1, GRP78 on the surface of glioma cell U87 (UniProt P11021 19-654, limits assumed); assay: confocal microscopy of U87 cells, 5 µM labelled peptide, 4 h, 37 °C (uptake)
T1 construct: whole, on cells; also called receptor protein on the cell surface; GRP78 protein

[2] = target: T2, GRP78 on the surface of HUVEC cells; assay: confocal microscopy of HUVEC cells, 5 µM labelled peptide, 4 h, 37 °C (uptake)
T2 construct: also called GRP78 on human umbilical vein endothelial cells

[3] = target: T3, Recombinant human glucose-regulated protein GRP78 (human, UniProt P11021 19-654, limits assumed); assay: SPR (Biacore T200), recombinant human GRP78 coupled to a CM5 chip, peptide injected at 0.3125-20 µM
T3 construct: also called Bip
T3 sequence (P11021 19-654 limits assumed): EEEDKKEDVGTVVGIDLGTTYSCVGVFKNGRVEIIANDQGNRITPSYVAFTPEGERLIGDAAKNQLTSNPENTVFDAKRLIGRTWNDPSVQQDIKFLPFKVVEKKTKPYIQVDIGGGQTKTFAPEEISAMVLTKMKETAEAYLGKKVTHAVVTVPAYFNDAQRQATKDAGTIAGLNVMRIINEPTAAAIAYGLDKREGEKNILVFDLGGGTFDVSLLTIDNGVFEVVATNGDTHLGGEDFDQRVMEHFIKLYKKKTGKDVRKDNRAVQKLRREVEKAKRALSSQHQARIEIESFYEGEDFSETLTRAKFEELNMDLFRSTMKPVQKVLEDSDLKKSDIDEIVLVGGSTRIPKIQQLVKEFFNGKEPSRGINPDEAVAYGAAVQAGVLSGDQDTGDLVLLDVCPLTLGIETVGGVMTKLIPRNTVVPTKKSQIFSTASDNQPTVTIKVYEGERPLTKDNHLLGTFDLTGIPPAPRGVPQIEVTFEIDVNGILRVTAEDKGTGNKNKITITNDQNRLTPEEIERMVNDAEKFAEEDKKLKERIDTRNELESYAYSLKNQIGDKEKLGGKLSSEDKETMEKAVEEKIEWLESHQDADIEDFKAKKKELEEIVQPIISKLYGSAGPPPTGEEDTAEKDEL

T1 sequence (P11021 19-654 limits assumed): as above
T2 sequence (chain, as listed by the source limits assumed): as the sequence (P11021 19-654 limits assumed) above

Binder | binding result [1] | binding result [2] | Kd [3] [nM] | koff [3] [s⁻¹]
SNTRVAPC(Fluorescein‑5‑maleimide) (also called Fluorescein-labeled ^LVAP) [LVAP-Fluorescein] | binds | binds |  | 
SNTRVAP [LVAP (L-configuration peptide SNTRVAP)] |  |  | 2700 | 0.019
